{"source": "patent US7291768", "key": {"[1]": {"biological_target": "GAD-OsMYBS2 (Oryza sativa) (UniProt B8BI93)", "sequence (B8BI93 other isoform, or with tags, fused parts or gaps)": "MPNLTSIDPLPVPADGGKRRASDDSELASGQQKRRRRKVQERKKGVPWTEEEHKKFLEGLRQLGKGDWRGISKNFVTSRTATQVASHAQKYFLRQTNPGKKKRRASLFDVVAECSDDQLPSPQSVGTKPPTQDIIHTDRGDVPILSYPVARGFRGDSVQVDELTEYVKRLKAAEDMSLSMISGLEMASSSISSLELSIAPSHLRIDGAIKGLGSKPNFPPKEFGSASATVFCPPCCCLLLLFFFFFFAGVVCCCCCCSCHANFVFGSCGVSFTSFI", "experiment": "one_hybrid", "details": "LacZ increase vs no OsMYBS"}, "[2]": {"biological_target": "T1, GAD-OsMYBS1 (Oryza sativa) (UniProt B8A9B2)", "T1 sequence": "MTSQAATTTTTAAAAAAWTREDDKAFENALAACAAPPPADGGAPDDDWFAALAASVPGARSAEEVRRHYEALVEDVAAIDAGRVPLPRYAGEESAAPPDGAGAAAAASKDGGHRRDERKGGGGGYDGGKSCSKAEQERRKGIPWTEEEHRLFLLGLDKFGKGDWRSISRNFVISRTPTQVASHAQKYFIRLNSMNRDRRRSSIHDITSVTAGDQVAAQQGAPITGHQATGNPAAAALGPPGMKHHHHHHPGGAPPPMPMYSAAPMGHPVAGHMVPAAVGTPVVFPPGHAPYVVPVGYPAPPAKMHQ", "experiment": "one_hybrid", "details": "LacZ increase vs no OsMYBS"}}}
{"substance": "8x(TATCCA+F), eight repeats of -133 to -82 of alphaAmy3", "values": [{"measurement": "activity", "setting": "[1]", "result": 5, "unit": "fold"}, {"measurement": "activity", "setting": "[2]", "result": 3, "unit": "fold"}]}
